# Source: publication PMC10144703, “Molecular Mechanism of Sirtuin 1 Inhibition by Human Immunodeficiency Virus 1 Tat Protein” (Life, 2023)
# T1: human Sirt3 (Homo sapiens, UniProt Q9NTG7)
# T1 construct: Sirt3-(93-399) in a modified pET-32a; Trx-His6 (cleaved yes); made in house; host or cells: E. coli CodonPlus(DE3)
# T1 sequence (Q9NTG7 93-399): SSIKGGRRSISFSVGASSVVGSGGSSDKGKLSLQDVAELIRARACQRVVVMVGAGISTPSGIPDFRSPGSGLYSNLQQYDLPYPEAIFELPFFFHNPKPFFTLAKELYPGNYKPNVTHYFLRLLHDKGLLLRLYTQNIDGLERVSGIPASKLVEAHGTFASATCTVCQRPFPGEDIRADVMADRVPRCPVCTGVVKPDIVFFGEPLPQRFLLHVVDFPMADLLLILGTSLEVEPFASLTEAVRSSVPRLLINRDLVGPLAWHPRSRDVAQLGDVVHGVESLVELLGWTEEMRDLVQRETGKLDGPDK
# T2: mini-Sirt1 (Homo sapiens, UniProt Q96EB6)
# T2 construct: aa 183-505-(GGGS)2-641-665; made in house; host or cells: E. coli CodonPlus(DE3)
# T2 sequence (Q96EB6 with tags, fused parts or gaps limits assumed): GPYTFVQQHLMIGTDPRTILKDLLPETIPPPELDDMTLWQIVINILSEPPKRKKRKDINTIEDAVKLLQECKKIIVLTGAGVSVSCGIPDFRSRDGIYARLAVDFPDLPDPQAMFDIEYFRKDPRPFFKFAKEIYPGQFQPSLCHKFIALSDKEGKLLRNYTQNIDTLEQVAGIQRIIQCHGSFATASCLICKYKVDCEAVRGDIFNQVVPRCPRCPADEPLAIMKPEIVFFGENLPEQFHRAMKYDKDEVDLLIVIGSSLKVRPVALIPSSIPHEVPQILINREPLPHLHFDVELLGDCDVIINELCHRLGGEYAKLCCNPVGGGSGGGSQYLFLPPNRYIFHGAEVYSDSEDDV
# B1: Tat-Cys^−: Recombinant 86-residue HIV1 Zaire 2 Tat with C22S, C25A, C27A, C30S, C31A, C34S, and C37A (protein)
# chain: MDPVDPNIEPWNHPGSQPKTASNRAHAKKSAYHSQVAFITKGLGISYGRKKRRQRRRPSQGGQTHQDPIPKQPSSQPRGDPTGPKE
# Tests used:
# human Sirt3 = target: T1, human Sirt3; assay: Continuous coupled enzymatic assay, Sirt3; type: biochemical; details: 65 μM Tat-Cys^−, acetylated peptide at substrate Km, n = 3
# From the text: A human mini-Sirt1 construct (aa 183-505-(GGGS)2-641-665), as described in [27], was generated in a modified pET-19b with a TEV cleavage site. This construct and human full-length Sirt1 (fl-Sirt1) in pET-15b, Sirt1-(183-664) and Sirt1-(214-664) in pET-15b, mini-Sirt1-∆SBD (aa 214-505-(GGGS)2-641-665) and mini-Sirt1-∆ESA (aa 183–505) in a modified pET-19b with TEV cleavage site, Sirt2-(43-356) in a modified pET-19b with a His6-Sumo tag, Sirt3-(93-399) in a modified pET-32a with Trx-His6 tag and TEV cleavage site, hSirt3-(118-399) in pVFT3S (Sungkyunkwan University, Seoul, Republic of Korea) with His6-Trx tag and TEV cleavage site, Sirt5-(34-302) in pET-151/D-TOPO, and Sirt6-(1-355) in pQE80L.1 were purified as described. […]
# Continuous coupled enzymatic sirtuin activity assays were conducted as described. […] Reactions were monitored for 1 h at room temperature by absorption spectroscopy at 340 nm in a UV/vis plate reader (BioTek). The slope for the linear range (typically 5–25 min) was evaluated after background correction with measurements without NAD^+. Additional control reactions were run by either omitting enzyme or omitting peptide substrate to ensure that the signal measured reflects the NAD+-dependent deacetylation activity of the sirtuin.
# mini-Sirt1 [1] = target: T2, mini-Sirt1; assay: DSSO crosslinking and MS analysis of mini-Sirt1/Tat-Cys^−; type: binding
# Method: Prior to crosslinking, mini-Sirt1, and Tat-Cys^− were dialyzed separately at 4 °C in Xpress Micro Dialyzer tubes (Serva, MD300, cutoff 6–8 kDa) against 25 mM HEPES, pH 7.5, 150 mM NaCl, 5% (v/v) glycerol. Then, 50 µM of each protein was crosslinked at 20 °C with 2.82 mM disuccinimidyl sulfoxide (DSSO) in 5% (v/v) DMSO. Before the addition of the crosslinker, 10 µL was removed from the reaction (t = 0 min) and stopped by adding 1 µL 1 M Tris/HCl, pH 8.0. Likewise, at several timepoints after the addition of DSSO, 10 µL of the reaction was sampled. Reaction samples were supplemented with SDS sample buffer and separated on a 15% SDS-PAGE. Controls contained only one of the two proteins and were treated similarly to exclude self-crosslinking.
# Crosslinked protein bands were cut out from SDS-PAGE gels and digested with 200 ng trypsin in 25 mM NH4HCO3, pH 8.0, at 37 °C overnight. The digested proteins were dried in a vacuum centrifuge, resuspended in 0.1% (v/v) FA, and injected onto a desalting column, followed by automated peptide separation with a C18 column (buffer A: 0.1% (v/v) FA, 5% (v/v) acetonitrile; buffer B: 0.1% (v/v) FA, 95% (v/v) acetonitrile). MS/MS spectra were recorded with an LTQ mass spectrometer (Thermo Fischer Scientific, Waltham, MA, USA) and CID-cleaved inter-protein crosslinks were analyzed with Byonic^TM (Protein Metrics Inc., San Carlos, CA, USA).
# mini-Sirt1 [2] = target: T2, mini-Sirt1; assay: 2D-(1H, 15N)-HSQC NMR titration of Tat-Cys^− with mini-Sirt1; type: binding; details: 58 µM Tat-Cys^−, 2-fold molar excess mini-Sirt1, pH 6.4, 298 K
# Method: NMR titration experiments were performed by stepwise addition of unlabeled mini-Sirt1 (stock concentration 260 µM) to 100 µM ^15N-labeled Tat-Cys^− in 150 mM sodium chloride, and 10 mM potassium phosphate (pH 6.4). Spectra for 2D-(^1H, ^15N)-HSQC NMR were recorded at 298 K on a Bruker 700 MHz spectrometer equipped with a cryogenically-cooled probe.
molecule,measurement,setting,value
B1,"inhibitory effect on Sirt3, continuous assay",human Sirt3,pronounced inhibitory effects
same,"crosslinking, SDS-PAGE","mini-Sirt1 [1]; 50 µM each protein, 2.82 mM DSSO, 5% (v/v) DMSO, pH 7.5, 20 °C",a strong band for a linked complex
same,crosslink site by MS,"mini-Sirt1 [1]; DSSO crosslink, trypsin digest, MS/MS",a crosslink between Tat-Lys71 and Sirt1-Lys238
same,HSQC signal changes on mini-Sirt1 addition,mini-Sirt1 [2],a large number of HSQC signals to disappear
same,HSQC signals unchanged on mini-Sirt1 addition,mini-Sirt1 [2],mostly to Tat residues 63–87
